Assay results reported in PMC5998909.

Target: Recombinant Art v 3.0201, non-specific lipid transfer protein of Artemisia vulgaris (mugwort) pollen (Artemisia vulgaris (mugwort)) (UniProt C4MGG9)
Assay: crystal structure + other: NMR spectroscopy; recombinant non-tagged Art v 3.0201; X-ray crystallography of the non-labelled protein, NMR of the 13C/15N-labelled protein

Recombinant Art v 3.0201, non-specific lipid transfer protein of Artemisia vulgaris (mugwort) pollen (from UniProt C4MGG9 1-114) (non-labelled protein)
stoichiometry N: 2
